From a protein production outcome set (Wang et al. 2014)

Assay: label from the status in PepcDB records
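Further: failed if final PepcDB status was selected cloned or expressed and not failed if soluble or beyond.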

| Sequence | protein production |
| --- | --- |
| LQASCSDDQEHRLGSLDFYTGVFALEKSRIAEISNRATLELQKMATSGEPMWLRSVETGREILNYDEYLKEFPQAQASSFPGRKTIEASRDAGIVFMDAHKLAQSFMDVGQWKETFACLISKAATVDVIRQGEGPSRIDGAIQLMFGEMQLLTPVVPTREVYFVRSCRQLSPEKWAIVDVSVSVEDSNTEKEASLLKCRKLPSGCIIEDTSNGHSKVTWVEHLDVSASTVQPLFRSLVNTGLAFGARHWVATLQLHCERLVFFMATNVPTKDSLGVTTLAGRKSVLKMAQRMTQSFYRAIAASSYHQWTKITTKTGQDMRVSSRKNV | not failed |
| MKEDIVSGTVKRVERHGIIVEVVAGKLDALIPRDQMIPRENFRSGDRIRALFLRVEEIGNTGRKQVILSRTSGDFLVKLYANEVPLEHHHHHH | failed |
| MLSKHYKLKFPGTLAMKGGYLFVFLAAVMWGTLGIFAKFLYGFNLSTYTIVFYRVLFALIFLAVYLKVRGLPLLMSKDRLPFYLGFSFFSIFLFYSLYFYTVKISSVSFAVLMLYTAPVYSLIFGRILFGEKLTPSKLTAVFLVILGVLLLNLDGKLNVSKLALLTGLASGLTYSLYGVFVKFAVRREEPERVLFNVLLIGLLFLLPVTDLRVPTAALPYLLGLAFFPTFLGYILYNTALKTVEVSKASIIATIEPVVAIILAYFIFGEALSLLQYLGASLIIAGAILAKR | failed |
| MHDATDSLPLCMTRPTRFRWVWWLLAYASLATGIVGIFVPGLPTTVLILNLRLGRLTWLRSRLHYWLLSHPRFGPAIVEWQTYRAVSRKAKWMATLTMSICAAIMLWCVPVFWVKCLSIGSMAVVAIWLWLRPEPPPRPLPAAH | failed |
| MENEENSAREQEADDFLHIASVKEDWGGDGRGRMNLSGRRTAIAKEYLPRQYQFFDTNTVMEKQGWRVRGMPDNIAPGSRRLLTWHDSGASTSRVVLPPKFEAPSGIFTADLEIFVIKGAIQLGEWQLNKHSYSFIPAGVRIGSWKVLGGEEAEILWMENGSVPLEYKYAQEDHPDARLSDFIPALDSKLLPWGKADTVQFVQANKKWLRKDINGGGVWLLAILPHFDNKYQMIQPYNEEGYCLTGYCDVGDYRIVKDHYWYCPSFSTLPRHITDDGGLFFVRVDRDLSKVATVLSYAPQDT | not failed |
| MKKPNHSGSGQIRIIGGQWRGRKLPVPDSPGLRPTTDRVRETLFNWLAPVIVDAQCLDCFAGSGALGLEALSRYAAGATLIEMDRAVSQQLIKNLATLKAGNARVVNSNAMSFLAQKGTPHNIVFVDPPFRRGLLEETINLLEDNGWLADEALIYVESEVENGLPTVPANWSLHREKVAGQVAYRLYQREAQGESDAD | not failed |
| MRLNHNSYEIFDFMRSRSAIGVLSKIIITIPPINLRMIIGVMGPEGSYSERAAKLWARKNGLRGAEFHYFADIEDAFLAAVGGKTDISVVPVENSIEGSVGVTLDLLLENEAVIIGEIVVKIEHCLLSKGEPEKIRVILSHPQGLAQCRHFLKTHFPEAELRSTGSTSHAARLAGEFEEMAAIASPEAAERYGLKILLSNVQDRKENHTRFIVVRGGEKVLSGKIKGKADSGEKLNTVFGRNAEHKLCSETETGTENSSSYAFKTSLIVYLEKDRPGALYEPLGFFAKRGINLTKIESRPSKKELGDYYFYIDLEGNISDVLIKDALEDIKSKASKKSRSSTLKVLGSYPAFKK | failed |
| KDDDNVETGAFDPSKPVAISDFTPKEGGAYQKLLIYGENFGTDVSKVKVKIGGKDAIVINVKSTYVYCFVPSGAFSGEIEITVGEGENAVTTTASTTFSYEKKMVVGTLCGYRNNRDDQGWRDGPFDGPEGVKCCGFSDNGRLAFDPLNKDHLYICYDGHKAIQLIDLKNRMLSSPLNINTIPTNRIRSIAFNKKIEGYADEAEYMIVAIDYDGKGDESPSVYIIKRNADGTFDDRSDIQLIAAYKQCNGATIHPINGELYFNSYEKGQVFRLDLVDYFKTIKNGGSWDPIVKNNPNTFKQLFTIADPSWEFQIFIHPTGKYAYFGVINNHYFMRSDYDEIKKEFITPYNFVGGYKQSGYRDDVGTEARMNNPCQGVFVKNPDYTGEEEYDFYFVDRLNFCVRKVTPEGIVSTYAGRGASTSLADGNQWGTDDGDLREVARFRDVSGLVYDDVKEMFYVHDQVGHTIRTISMEQEENVAGDENIPEDESTVESNE | not failed |
| MKRIHVRYKQIRRFFLLLGLVIIAAYVAFVLYRYWDHWLLLSNPQKAIENFEQQFRSENLFNFLVLTVLTSLTAAIPFLSSSVLSVFNGVVFGPWIGVLMNTIGNILGHFFLIQMMSRVDLTERDSKFNHHLERLSQIKNPYLALTLGYMIPFIPSFLVDYMVLDTKIPWHRWLPCLTLGVIPTSILYAFGGHAIIAGNMKQLILIVLLALILLAIYKRFEKKKG | failed |
| MSENQKEVSPPQAISVKSEASSSIFSKPISTSSPAGLAAAQRVTPGKLSTLLLEMGPLAIRHITQTLCLDIPCFKDLSSSKQRRLIMSAMESGDKEKSVVFEKIGWGQWSAKRVDPANFDKELEATNFANAKVKDLISQESQRRKSNNSNSNSGGKVEMPMKVEHNITNIDGATTPPTAVASTTIPVNIKRSKSPLAAANVVYIDENALASEDEDEEFDEDDHHLHYQNKSRNSSNNFGKSSNGDPYSFGRRRSQVVFADSTPENIEHEIIAQKIRPLLRNRRRSSIKPHTPFISKLNTHQDSSYLSPNTTSTTTPSNNNSNSNQAKIDLEKLTATSEPTSRRASRLSVSKESSIRSTLFPNKNYLIVTTNPNSKATSVSTSPKLEEQMNVSSNPIVLSDKEKHRVASQHLNGESSPQLVPHSHHQPHSDTDEEDWESIGAASLRNNSLAPNIDSVASSTNGVVSPKPTNPSFTNSQNGDIEPPLQHDQQKHEQQPRNGEDNSAAFLLMSLKS | not failed |
| MGLFLEDLAVGDRFDSARHRVEAAAIKAFAGEFDPQPFHLDEEAARHSLFGGLAASGWHTAAITMRLLVTSGLPLAQGIIGAGTELSWPNPTRPGDELHVETTVLAITPSKSRPDRAIVTCQSDTLNQRGEVVQRSTAKVVVFRRPLEHHHHHH | not failed |
| SDMGTSALSKKPWWTLPQNFHAPMVFHMEEDQEELIFGHGDTYLRCIEVHSHTLIQLESWFTATGQTRVTVGPHRARQWLLHMFCCVGSQDSYHHARGLEMLERVRSQPLTNDDLVTSISVPPYTGDLSLAPRISGTVCLSVPQPSPYQVIGCSGFHLSSLYP | failed |
| MNIMLFHSTYGLRPAVRAAADRLRAAGHEVWTPDLLEGRTFETVEEGMAFCDGIGKDELLKRAVLAAAPYSERGLVYAGFSLGASIAQTLALGDEKARGLLLLHGTSDIAESASVDELPVQLHVAEPDAFETDDWLGAWYLQLRRAGADVEVYRYAGAGHLYTDPDLPDYDAEAAEATWKVALGFLDSL | not failed |
| MRSMLQDSLVLLDYLRGMLLHNEELWLLLFPVMIIIELPLYLLVLTGIFRWSYMREEPELKRFPSVSFVITCYGEGEAIGITIDTLVEQIYPGHIEILAVVDGAVQNQDTYKAALNGERRHTGVRNRKVRVLPKWQRGGRVSTLNAGLSMASGEIVINVDGDTSFDNDMVFTMMKQFADKNVIASGGALRVRNHNANLLTKMQSLEYMLSMQAGKTGMATWGVLNNISGAFGAFRKNLLKQVGGWDTHTAEDLDLTMRLKQYKCRYPDNKLAFSTHSIGHTDVPDTLKGLVLQRLRWDGDLLFLFLRKHNEGLSPRLLGWGNFVFTLAYGVIQNVLLPLLVVIFSVYMVIVYPLKFVLALMLMLYFVYLFLSALIFVVYIGLVSERKKEDLKSVKWLFLYPVYQFFMRLITAFSMVNEVVRRSHEESSMAPWWVLKRGKKF | failed |
| MKKKKIWALIWRKSAFRWLLISIFTAIIISACSYNVSKDENGKVKTVKSHFTPCYVVKHKMGETCVPQNPQRIVVLAQTTLANVLALGVKPIGILGADLPTYLQQARDIQVVGEGWEPDVEKILLLKPDLILGKEYHRTQYNTLSQIAPTVLLEWNGTPSWKQHLEDVAQVLNKTDQAKSLMRNYHQRLEEFKIKMGDRLKNLQISYIDILVGYIWCDVKNSFAGTILADAGLQHPSAQEVVTKGGYITFGLETMPMDADGDVIFTSHWMDEDGAKALKRNQNNPLWRKLKAVEQNQVYVVNRHFWRGSNILAAHKVIDDLFNYLVDAKS | failed |
| MNLASQSGEAGAGQLLFANFNQDNTEVKGASRAAGLGRRAVVWSLAVGSKSGYKFFSLSSVDKLEQIYECTDTEDVCIVERLFSSSLVAIVSLKAPRKLKVCHFKKGTEICNYSYSNTILAVKLNRQRLIVCLEESLYIHNIRDMKVLHTIRETPPNPAGLCALSINNDNCYLAYPGSATIGEVQVFDTINLRAANMIPAHDSPLAALAFDASGTKLATASEKGTVIRVFSIPEGQKLFEFRRGVKRCVSICSLAFSMDGMFLSASSNTETVHIFKLETVKEKPPEEPTTWTGYFGKVLMASTSYLPSQVTEMFNQGRAFATVRLPFCGHKNICSLATIQKIPRLLVGAADGYLYMYNLDPQEGGECALMKQHRLDGSLETTNEILDSASHDCPLVTQTYGAAAGKGTYVPSSPTRLAYTDDLGAVGGACLEDEASALRLDEDSEHPPMILRTD | failed |
| MDYKLIITLFTFCVAAFSGMKAAEAASFSVVADGLNNARGLSFGLDGALYVTEAGTGGNGACIPSVTGQGGSLCYGTSSTVLKIENGVTSPVLTGLPSIALADGTGAGGARDIQFDTTGKPYILMGYGANPTFRNNLGNIDLGKIIAPDFQTNSWTSIADLANYELVNNPDGGDINSNPLGFFIDGNNLIAVDAGANNLLSVQTNGTNLQTLSVFPQEILTNPVFPPSGTPSTEPGQVPTPTAPPPPQLPIQVVPSSVVRGPDGAYYVSQFTGFPFPEGGAKIYRVGTDGETTIYADGFTQLTDLEFDSAGNLYALQYANQSAWKGNFDGSLIKIAADGTRTTILSGNGLESPNALAIAPNGEIYITNRSDRPGLGQIIRVENSQAVPEPNSAFSVFLLGAFGVAWLRKSTSRVCLNQKP | failed |
| MGKFTQRLSLRVRLTLIFLILASVTWLLSSFVAWKQTTDNVDELFDTQLMLFAKRLSTLDLNEINAADRMAQTPNRLKHGHVDDDALTFAIFTHDGRMVLNDGDNGEDIPYSYQREGFADGQLVGEDDPWRFVWMTSPDGKYRIVVGQEWEYREDMALAIVAGQLIPWLVALPIMLIIMMVLLGRE | not failed |
| MTEYKQEQEMEIEALEAILMDEFKEIHSSESGLNTSNRCFQITVTPQDDELEELAIPPVQLALVFSHTENYPDEAPLLDVKSIRGIHVSDLTILKEKLEQEASENLGMAMIYTLVSSAKDWLSEHYGQDDAAEFAEVEAAKEDEVIVPHGEPVTLETFLAWRERYEAELALERAKLMPESALTAPKEKKLTGRQWFESGRGRGTVVIADEEDEEEDEEDIDFEDEDFEDDEEDMLEHYLAEKSDSSAPPTRT | failed |
| MVKVLILGQGYVASTFVAGLEKLRKGEIEPYGVPLARELPIGFEDIKIVGSYDVDRAKIGKKLSEVVKQYWNDVDSLTSDPEIRKGVHLGSVRNLPIEAEGLEDSMTLKEAVDTLVKEWTELDPDVIVNTCTTEAFVPFGNKEDLLKAIENNDKERLTATQVYAYAAALYANKRGGAAFVNVIPTFIANDPAFVELAKENNLVVFGDDGATGATPFTADVLSHLAQRNRYVKDVAQFNIGGNMDFLALTDDGKNKSKEFTKSSIVKDILGYDAPHYIKPTGYLEPLGDKKFIAIHIEYVSFNGATDELMINGRINDSPALGGLLVDLVRLGKIALDRKEFGTVYPVNAFYMKNPGPAEEKNIPRIIAYEKMRIWAGLKPKWL | not failed |
| MDYKSKTANDKEISIYYFSATGNSLKLSQDIAAAFGGAGLFRMTPSAGITASDSRIVGFIFPVYMGGLPGIVRRFLESYPFRKGVYYFSIGTYYTYKGCAVSVVDKIMSGKGVRLDYGYNLPTVGNCLKEYEVSSVRRTKILERAELYTSRIIDDLKKGKRKKPFPYCRLSDLLHKGLFNAFFSRSHLNFSLENGCMGCGVCERVCPVNNITLKNGVPRWGTGCEACHACVHWCPRNVIQIGKSKGRLQYHHPAVKRTMLYRVELEHHHHHH | not failed |
